# Biological target: SARS-CoV-2 spike (S)-trimer protein (SARS-CoV-2) (UniProt P0DTC2)
# Test: SEC
substance,measurement,value
SARS-CoV-2 spike (S)-trimer protein (from UniProt P0DTC2 16-1209) (domain or fragment),stoichiometry N,3
